# Experimental data: the nanobody polyreactivity screen of Harvey et al. (2022)
# Assay: yeast display, Sf9 membrane polyspecificity reagent, FACS + sequencing; frameworks hold sequencing errors
# How it was run: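 In a synthetic yeast display library (Saccharomyces cerevisiae BJ5465), nanobody expression was induced with galactose for 36–48 hours. FACS gates were set low and high (top ~1%) using anti-HA fluorescence for expression and streptavidin fluorescence for binding of the Sf9 membrane reagent. Each polyreactivity label is drawn from the gate of origin.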
row,Sequence,polyreactivity (PSR sort gate)
1,QVQLVESGGGLVQAGGSLRLSCAASGSTLLTYTMGWYRQAPGKERELVASITTSARSTYYADSVKGRFTISRDNAKNTVYLQMNSLKPEDTAVYYWGQGTQVTVSS,low polyreactivity
2,QVQLVESGGGLVQAGGSLRLSCAASGSTLNRYAMGWYRQAPGKERELVAAISISGGRTYYADSVKGRFTISRDNAKNTVYLQMNSLKPEDTAVYYCAADQYYYRYIRTSKYDYWGQGTQVTVSS,high polyreactivity
3,QVQLVESGGGLVQAGGSLRLSCAASGSTLNSYVMGWYRQAPGKERELVATIRSGSSTNYADSVKGRFTISRDNAKNTVYLQMNSLKPEDTAVYDCAADAYSLCYDSWGQGTQVTVSS,low polyreactivity
4,QVQLVESGGGLVQAGGSLRLSCAASGSTLNYNAMGWYRQAPGKERELVAAISWSGGSTYYADSVKGRFTISRDNAKNTVYLQMNSLKPEDTAVYYCAADQSTVLDVGSWGQGTQVTGSS,low polyreactivity
5,QVQLVESGGGLVQAGGSLRLSCAASGSTLNYYAMGWYRQAPGKERELVAAITWSGGSTSYADSVKGRFTISRDNAKNTVYLPMNSLKRDDTAVYYCATDFPTVQLYETDWLSSDMGYWGQGTQVNVSS,low polyreactivity
6,QVQLVESGGGLVQAGGSLRLSCAASGSTLPANAMGWYRQAPGKERELVAAITITTDGSTYYADSVKGRFTISRDNAKNTVYLQMNSLKAEDTAVYYCAVARYRYHIRKMGYWGQGTQVTVSS,low polyreactivity
7,QVQLVESGGGLVQAGGSLRLSCAASGSTLPGNVMGWYRQAPGKERELVAAISKRGASTYYADSVKGRFTISRDNAKNNVYLQTPRLKPEDSAVYYCASRTRGSVVRFDYWGQGTQVTVSS,high polyreactivity
8,QVQLVESGGGLVQAGGSLRLSCAASGSTLPSYAMGWYRQAPGKERELVAAISSSGGRTYYADSVKGRFTISRDNAKNTVYLQMNSLKPEDTAVYYCAALSVANYHGTDSGYWGQGTQVTVSS,high polyreactivity
9,QVQLVESGGGLVQAGGSLRLSCAASGSTLPTNAMGWYRQAPGKEREFVAAISDNGGSTYYADSVKGRFTISRDNAKNTVYLQMNSLKPEDTAVYYCAADNFAPEFYYWGQGTQVTVSS,low polyreactivity
10,QVQLVESGGGLVQAGGSLRLSCAASGSTLPYNAMGWYRQAPGKERELVAAISKSGGRTYYADSVKGRFTISRDNAKNTVYLQMNSLKPEDTAVYYCNAGPYRGGGGSSRYYWGQGTQVTVSS,high polyreactivity
11,QVQLVESGGGLVQAGGSLRLSCAASGSTLPYYAMGWYRQAPGKERELVADITARGGTYYADSVKGRFTISRDNAKNTVYLQMNSLKPEDTAVYYCAAEDYWSPGYDYWGQGTQVTVSS,high polyreactivity
12,QVQLVESGGGLVQAGGSLRLSCAASGSTLRGNAMGWYRQAPGKERELVAAISWSGGITYYADSVKGRFTISRDNAKNTVYLQMNSLKPEDTAVYYCAVDRPRGGPTKYERRTKHGYWGQGTQVTVSS,low polyreactivity
13,QVQLVESGGGLVQAGGSLRLSCAASGSTLRGYAMGWYRQAPGEERELVAAISRRGSGTYYADSVKGRFTISRDNAKHTVYLQMNSLKPEETAVYYCNAVNGDYEFGYWGQGTQVTVSS,high polyreactivity
14,QVQLVESGGGLVQAGGSLRLSCAASGSTLRGYAMGWYRQAPGKEMELVAAITRSGGSTYYADSVKGRFTISRDNAKNTVYLQMNSLKPEDTAVYYCNARAFPYYRRFDYWGQGTQVTVSS,high polyreactivity
15,QVQLVESGGGLVQAGGSLRLSCAASGSTLRGYVMGWYRQAPGTERELVAAITQRAGSTYYADSVKGRFTISRDNAKNTVYLQMNSLKPEDTAVYYCRRFYFGKYDYWGQGTQVTVSS,high polyreactivity
16,QVQLVESGGGLVQAGGSLRLSCAASGSTLRYYAMGWYRQAPGKEREFVAAISWRGGSTYYADSVKGRFTISRDNAKNTVYLQMNSLKPEDTAVYYCAAKALYAYRLYDYWGQGTQVTVSS,high polyreactivity
17,QVQLVESGGGLVQAGGSLRLSCAASGSTLRYYAMGWYRQAPGKERELVAAISTGGSTYYADSVKVRFTISRDNAKNTVYLQMNSLKAEDTAVYYCAAEKKTKTYRYDYWGQGTQVTVSS,low polyreactivity
18,QVQLVESGGGLVQAGGSLRLSCAASGSTLRYYAMGWYRQAPGKERELVAAITYSAGRTSYADSVKGRFTISRDNAKNTVYLQMNSLKPEDTAVYYCATQWHSYLRRYDYWGQGTQVTVSS,low polyreactivity
19,QVQLVESGGGLVQAGGSLRLSCAASGSTLRYYAMGWYRQAPGKETEFVAAITASGVTTYYADSVKGRFTISRDNAKNTVYLQMNSLKPEDTAVYYCAARLYYNYRDRYNYWGQGTQVTVSS,high polyreactivity
20,QVQLVESGGGLVQAGGSLRLSCAASGSTLSLYAMGWYRQAPGKERELVAAITSSGGTYYADSVKGRFTISRDNAKNTVYLQMNGLKPEDTAVYYCAAQSYSRMDYWGQGTQVTVSS,high polyreactivity
21,QVQLVESGGGLVQAGGSLRLSCAASGSTLSLYAMGWYRQAPGKERELVAAITSSGGTYYADSVKGRFTISRDNAKNTVYLQMNSLKPEDTAVYYCNAYAKDARSYGYHRVNYWGQGTQVTVSS,high polyreactivity
22,QVQLVESGGGLVQAGGSLRLSCAASGSTLSTYVMGWYRQAPGKERELVAAITRRGGITYYADSVKGRFTISRDNAKNTVYLQMNSLKPEDTAVYYCNRLRYPHTFQTGGYWGQGTQVTVSS,high polyreactivity

row,Sequence,polyreactivity (PSR sort gate)
1,QVQLVESGGGLVQAGGSLRLSCAASGSTLTWNDMGWYRPAPGKERELVAAIDVNDGSTYYADSVKGRFTISRDNAKNTVYLQMNSLKPEDTAVYYCAEPTDYTWLDSTLADDYWGQGTQVTVSS,low polyreactivity
2,QVQLVESGGGLVQAGGSLRLSCAASGSTLTYYAMGWYRQAPGKERELVAAISVSGGRTYYADSVKGRFTISRDNAKYTVYLQMNSLKPEDTAVYYCNALSSRAGGRGYDYWGQGTHVTVSS,high polyreactivity
3,QVQLVESGGGLVQAGGSLRLSCAASGSTLVIYAMGWYRQAPGKEREFVAAIRWSTGRTYYADSVKGRFTISRDNAKNTVYLQMNSLKPEDTAVYYCNASYWAPNSLPDGFRYDSWGQGTQVTVSS,high polyreactivity
4,QVQLVESGGGLVQAGGSLRLSCAASGSTLVKYAMGWYRQAPGKERELVAAISWSGGRTYYADSVKGRFTISRDNAKNTVYLQMNSLKPEDTAVYYCNAEFRGRPPSFAIKYDYWGQGTQVTVSS,high polyreactivity
5,QVQLVESGGGLVQAGGSLRLSCAASGSTLVLNAMGWYRPATGKERELVAAITISGDTTYYADSVKGRFTISRDNAKNTVYLQMNCLKPEDTAVYYCAAVVSTVDCMEYWGQGTQVTVSS,low polyreactivity
6,QVQLVESGGGLVQAGGSLRLSCAASGSTLVRYAMGWYRQAPGKERELVASISYSGGSTHYADSVKGRFTISRDNAKNTVYLQMNSLKPEDTAVYYCAARRYYSWGGHYYWGQGTQVTVSS,high polyreactivity
7,QVQLVESGGGLVQAGGSLRLSCAASGSTLVTNSMGWYRKAPGKERELVAAITFSGGTTYYADSVKGRFTISLDNAKNTVYLQMNSLKPEDTAVYYCAAEIWLEYVGYDYCGQGTQVTVSS,high polyreactivity
8,QVQLVESGGGLVQAGGSLRLSCAASGSTLVYYDMGWYRKAPGKERELVATITGTDSTYYADSVKGRFTISRDNAKNTVYLQMNSLKPEDTADCAADRAASRPDYDYWGQGTQVTVSS,low polyreactivity
9,QVQLVESGGGLVQAGGSLRLSCAASGSTLWYNAMGWYRQAPGKERELVATITAGGGSTYYADSVKGRFTISRDNAKNTVYLQMNSLKPEDTAVYYCATRRSRGPWYRNAYDYWGQGTQVTVSS,low polyreactivity
10,QVQLVESGGGLVQAGGSLRLSCAASGSTLYAYAMGWYRQAPGKERELVAAISFSTTSTYYADSVKGRFTISRDNAKNTVYLQMNSLKPEVTAVYYCAAEYWYYWEYEYWGQGTQVTVSS,high polyreactivity
11,QVQLVESGGGLVQAGGSLRLSCAASGSTLYAYAMGWYRQAPGKERELVAAISSRAVRTYYADSVKGRFTISRDNAKNTVYLQMNSMKPEDTAVYYCAAQRSYAYEYWGQGTQVTVSS,high polyreactivity
12,QVQLVESGGGLVQAGGSLRLSCAASGSTLYAYAMGWYRQAPGKERELVAGISSSGARTYYADSVKGRFTISRDNAKITVYLQMNSLKPEDTAVYYCAALAPVGTSKSYGYWGQGTQVTVSS,high polyreactivity
13,QVQLVESGGGLVQAGGSLRLSCAASGSTLYAYAMGWYRQAPGKERELVASIPAGGITHYADSVKGRVTISRDNANNTVYLHMISLKPEDTAVDYCNTVAYLRRFDKWGMNYWGQGTQVTVSS,low polyreactivity
14,QVQLVESGGGLVQAGGSLRLSCAASGSTLYAYVMGWYRQAPGKERELVATISWSGGRTYYADSVKGRFTISRDNAKNTVYLQMNSLKPEDTAVYYCNARRRYSYVSRKFDYWGQGTQVTVSS,high polyreactivity
15,QVQLVESGGGLVQAGGSLRLSCAASGSTLYFNAMGWYRQAPGKERELVATITSGGSTYYADSVKGRFTISRDNAKNTVYFQMNSLKPEDTAAYYCNADFGSYATNGLTPLYDYWGQGTQVTVSS,high polyreactivity
16,QVQLVESGGGLVQAGGSLRLSCAASGSTLYGNVMGWYRQAPGKESELVATINRGGSTNYADSVKGRFTISRDNAKNTVYLQMNSLKPEDTAVYYCAARAFAWYYLEDYWGQGTQVTVSS,low polyreactivity
17,QVQLVESGGGLVQAGGSLRLSCAASGSTLYIYVMGWYRQAPGKERELVAAIDSGDDTDYADSVKGRFTISRDNAKNTVYLQMNSLKPEVTAVYYCAAQKWYYPYYWGKGTQVTVSS,high polyreactivity
18,QVQLVESGGGLVQAGGSLRLSCAASGSTLYRNAMGWYRQAPGKERELVAAISSSGGTTFYADSVKGRFTISGDNAKNTVYLQMNCLKPEDSAVYYCIRTARKLRTVHSSVVGLDYWGQGTQVTVSS,low polyreactivity
19,QVQLVESGGGLVQAGGSLRLSCAASGSTLYRYTMGWYRQAPGKERELVAAISSGGNTYYADSVKGRFTISRDNAKNTVYLQMNSLKPEDTAVYYCAAEDSVYIPYYDAFDYWGQGTQVTVSS,low polyreactivity
20,QVQLVESGGGLVQAGGSLRLSCAASGSTLYTYAMGWYRQAPGKERELVAAIRLSGGRTYYADSVKGRFTISRDNAQNTVYLQMNSLKPEDTAVYYCAVDWSYSRYDYWGQGTQVTVSS,high polyreactivity
21,QVQLVESGGGLVQAGGSLRLSCAASGSTLYTYAMGWYRQAPGKERELVATISWSGSSTYYADSVKGRFTISRDNAKNTVYLQMNSLKPEHTAVYYCAAPYHYWYRLDYWGQGTQVTVSS,high polyreactivity
